Test results from the Immune Epitope Database (IEDB).

Key:
HLA-B*57:01 [1] = assay: IEDB peptide-MHC binding, purified MHC/competitive/fluorescence; ≥ and ≤ were set here for values at or beyond the usual limits of such assays; conditions: source organism: Homo sapiens
HLA-A*01:01 = assay: IEDB peptide-MHC binding, purified MHC/direct/fluorescence; filed as Kd, often an IC50 or EC50 that approximates it; ≥ and ≤ were set here for values at or beyond the usual limits of such assays
HLA-B*27:05 = assay: as above
HLA-B*15:01 = assay: as above; conditions: source organism: Marburg virus - Musoke, Kenya, 1980
HLA-B*07:02 = assay: as above
HLA-B*46:01 = assay: as above; conditions: source organism: Marburg virus - Musoke, Kenya, 1980
HLA-B*15:02 = assay: as above; conditions: source organism: Ravn virus - Ravn, Kenya, 1987
HLA-B*48:01 = assay: as above
HLA-B*58:01 = assay: as above
HLA-B*15:17 [2] = assay: as above; conditions: source organism: Marburg virus - Musoke, Kenya, 1980
HLA-A*69:01 = assay: as above
HLA-B*08:01 = assay: as above; conditions: source organism: Ravn virus - Ravn, Kenya, 1987
HLA-B*57:01 [3] = assay: as above
HLA-A*68:02 [4] = assay: as above; conditions: source organism: Marburg virus - Musoke, Kenya, 1980
HLA-A*02:03 = assay: IEDB peptide-MHC binding, purified MHC/competitive/fluorescence; filed as Kd, often an IC50 or EC50 that approximates it; ≥ and ≤ were set here for values at or beyond the usual limits of such assays; conditions: source organism: Orthomarburgvirus marburgense
HLA-A*02:01 [5] = assay: as above; conditions: source organism: Orthomarburgvirus marburgense
HLA-A*26:01 = assay: as above; conditions: source organism: Orthomarburgvirus marburgense
HLA-A*31:01 [6] = assay: as above; conditions: source organism: Orthomarburgvirus marburgense
HLA-A*30:01 = assay: as above; conditions: source organism: Orthomarburgvirus marburgense
HLA-A*11:01 [7] = assay: as above; conditions: source organism: Orthomarburgvirus marburgense
HLA-B*18:01 = assay: IEDB peptide-MHC binding, purified MHC/direct/fluorescence; filed as Kd, often an IC50 or EC50 that approximates it; ≥ and ≤ were set here for values at or beyond the usual limits of such assays; conditions: source organism: Camelpox virus CMS
HLA-A*26:03 = assay: as above; conditions: source organism: Variola virus
HLA-B*40:01 = assay: as above; conditions: source organism: Camelpox virus CMS
HLA-A*02:01 [8] = assay: as above; conditions: source organism: Camelpox virus CMS
HLA-A*31:01 [9] = assay: as above; conditions: source organism: Camelpox virus CMS
HLA-B*44:02 = assay: as above; conditions: source organism: Camelpox virus CMS
HLA-A*11:01 [10] = assay: as above; conditions: source organism: Camelpox virus CMS
HLA-B*15:17 [11] = assay: IEDB peptide-MHC binding, purified MHC/competitive/fluorescence; filed as Kd, often an IC50 or EC50 that approximates it; ≥ and ≤ were set here for values at or beyond the usual limits of such assays; conditions: source organism: Vaccinia virus Tian Tan
HLA-A*26:02 = assay: as above; conditions: source organism: Vaccinia virus Tian Tan
HLA-A*68:02 [12] = assay: as above; conditions: source organism: Vaccinia virus Tian Tan
[13] = source organism: Marburg virus - Musoke, Kenya, 1980
[14] = source organism: Camelpox virus CMS

Sequence: STIRLLTSL
- IC50 (HLA-B*57:01 [1]): 0.853 µM

Sequence: ALFHKVQSY
- Kd (HLA-A*01:01; [13]): ≥ 20 µM
- Kd (HLA-B*27:05; [13]): ≥ 20 µM
- Kd (HLA-B*15:01): 0.0205 µM
- Kd (HLA-B*07:02; [13]): ≥ 20 µM
- Kd (HLA-B*46:01): ≥ 20 µM
- Kd (HLA-B*15:02): 0.038 µM
- Kd (HLA-B*48:01; [13]): ≥ 20 µM
- Kd (HLA-B*58:01; [13]): ≥ 20 µM
- Kd (HLA-B*15:17 [2]): 0.0046 µM
- Kd (HLA-A*69:01; [13]): ≥ 20 µM
- Kd (HLA-B*08:01): ≥ 20 µM
- Kd (HLA-B*57:01 [3]; [13]): ≥ 20 µM
- Kd (HLA-A*68:02 [4]): ≥ 20 µM
- Kd (HLA-A*02:03): 1.56 µM
- Kd (HLA-A*02:01 [5]): 1.31 µM
- Kd (HLA-A*26:01): 1.14 µM
- Kd (HLA-A*31:01 [6]): 3.92 µM
- Kd (HLA-A*30:01): 0.438 µM
- Kd (HLA-A*11:01 [7]): 1.94 µM

Sequence: REVFYFGKF
- Kd (HLA-B*18:01): 0.813 µM
- Kd (HLA-A*01:01; [14]): ≥ 20 µM
- Kd (HLA-B*27:05; [14]): ≥ 20 µM
- Kd (HLA-B*07:02; [14]): ≥ 20 µM
- Kd (HLA-A*26:03): ≥ 20 µM
- Kd (HLA-B*48:01; [14]): ≥ 20 µM
- Kd (HLA-B*58:01; [14]): ≥ 20 µM
- Kd (HLA-B*40:01): 0.0617 µM
- Kd (HLA-A*02:01 [8]): ≥ 20 µM
- Kd (HLA-A*69:01; [14]): ≥ 20 µM
- Kd (HLA-B*57:01 [3]; [14]): ≥ 20 µM
- Kd (HLA-A*31:01 [9]): ≥ 20 µM
- Kd (HLA-B*44:02): ≥ 20 µM
- Kd (HLA-A*11:01 [10]): ≥ 20 µM
- Kd (HLA-B*15:17 [11]): ≥ 20 µM
- Kd (HLA-A*26:02): 2.35 µM
- Kd (HLA-A*68:02 [12]): 3.04 µM
